Reference: the supplement of paper PMC10567573
± gives the standard deviation.

Assay: protein stability index of a GFP-peptide fusion (GPS, HEK-293T) (PSI 1-6); higher = more stable
Settings: c terminus: a fixed tail appended
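Note: 24-mer peptide tiles fused after GFP, lentivirally expressed, FACS-sorted into six equal bins by GFP/DsRed ratio, decoded by Illumina sequencing, PSI is the read-weighted mean bin number.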

Sequence	protein stability index (treatment: DMSO)	protein stability index (treatment: MLN4924 1 uM, 8 h)
PEFELLWKDIIHNPQALSPQFTGI [INTS3]	2.16 ± 0.15	2.21 ± 0.32
AVCLLGVGTMVGADILAGREDNSG [SLC35F2]	3.17 ± 0.5	3.11 ± 0.2
VQITGQPNILFYASTVLKSVGFQS [SLC2A12]	3.12 ± 0.57	2.58 ± 0.45
ENGSVSSSETPPPPPPPNEINPPP [EIF5]	5.32 ± 0.18	5.35 ± 0.17
TRAADLLVNPLDPRNADKIRVKIA [SRPK2]	3.64 ± 0.48	3.75 ± 0.23
KSELSDGIAILVGSNDRVQGVISQ [TRIM55]	3.46 ± 0.31	3.52 ± 0.34
FYFENALSKSNKPIHTIILNPHVH [CAMK2D]	2.01 ± 0.58	2.42 ± 0.044
LPNHRAAKRLWKVCVEHHTFFRLL [EPB41L3]	2.42 ± 0.34	2.36 ± 0.13
STASTTSTTNSTAAKPAASITSKP [ZNF207]	5.15 ± 0.11	5.01 ± 0.19
KLVADFQRYILYWRKRFTEQPITD [ZNF277]	1.99 ± 0.24	2.19 ± 0.44
NKQAYDLAKALLKRTAQAIEPYIT [PDS5B]	2.54 ± 0.46	2.63 ± 0.37
SAAGPPLSEDDKLQGAASHVPEGF [EHMT1]	5.31 ± 0.3	5.21 ± 0.11
MEKYERIRVVGRGAFGIVHLCLRK [NEK8]	2.09 ± 0.21	2.33 ± 0.27
NHGYAEPAAGRELPPDMTVVPGDH [KCNA3]	5.21 ± 0.14	5.24 ± 0.24
QFRMAQEEARRNRLMRDMAQLRLQ [SMG5]	2.95 ± 0.21	3.25 ± 0.26
VLPCIQQIQRISLNTLTLNVKSEK [FLOT1]	2.84 ± 0.14	2.98 ± 0.24
SQYIAVEAAEGRNKNEVFYQCPDQ [FBXO3]	4.46 ± 0.061	4.74 ± 0.094
HQRFLREGRFWKSKNEDRGEEEAE [ZMYND11]	4.94 ± 0.21	5.27 ± 0.2
KLQGLENWGQDPGVSANASKAWHQ [PBXIP1]	3.27 ± 0.27	3.37 ± 0.28
QEDAPMIEPLVPEEKMETKTESSG [EPB41L3]	5.69 ± 0.17	5.63 ± 0.13
LFPNAKKEHVPTWLQNTHVYSWPK [TRAF3IP2]	2.8 ± 0.33	2.81 ± 0.19
WEVQVSPTCPVCKDRASPADLRTN [TRIM35]	3.2 ± 0.43	3.61 ± 0.27
SELPPPMERTGGIGDSRPPSFHPH [DVL3]	4.55 ± 0.25	4.61 ± 0.09

Sequence	protein stability index (treatment: DMSO)	protein stability index (treatment: MLN4924 1 uM, 8 h)
VLGPLVALIICYNWLHRRLAGQFL [MOG]	3.15 ± 0.19	2.92 ± 0.13
YQRFRQKSKASFLLLASGLVITDF [PTGFR]	2.65 ± 0.21	2.49 ± 0.7
TSFNHMDSDKLSGLWSRISHLVLP [TOR1AIP2]	2.28 ± 0.2	2.33 ± 0.2
NSKEDAFSGTDWMLEKMDLKEFDL [ATF4]	4.6 ± 0.26	4.55 ± 0.2
EARARARANRGILQQERQRLGQRQ [DNAJC4]	4.74 ± 0.28	4.65 ± 0.14
KIRKPRTIYCSLQLQALNRRFQQT [DLX1]	2.45 ± 0.78	1.95 ± 0.51
SQFHSVRPQGPQLRQQQHKQNKQV [DNAJC4]	4.85 ± 0.12	4.87 ± 0.13
YGDWTSGENSDGCYEHFAELDIPQ [CLPTM1]	4.54 ± 0.23	4.63 ± 0.26
GLFVPSLLCGAAFGRLVANVLKSY [CLCN6]	2.2 ± 0.55	2.37 ± 0.64
SIARLEMGPDEYEEMEEEEEEEEE [FBXO3]	5.41 ± 0.26	5.62 ± 0.28
EIVVTISWAKSIPGFSSLSLSDQM [ESRRA]	3.19 ± 0.5	2.59 ± 0.22
AIVGGMALGVAGLAGLIGLAVSKS [FIS1]	3.38 ± 0.82	3.12 ± 0.51
SIWAQNQVENWSAFAPDFKELDEN [RBBP5]	4.26 ± 0.26	4.23 ± 0.23
SPQFEGPLSPPPINYNGIFSLKQE [NEUROD6]	3.96 ± 0.11	4.05 ± 0.17
EGYKDADYWLRRFEAEPLPENTNR [PI4K2A]	4.52 ± 0.13	4.41 ± 0.16
KDPKAGDSKSGGSGSESDHTTRSS [DVL3]	5.3 ± 0.38	5.53 ± 0.23
ACIAYIRITQYLDAGGIPRTAQSE [CAMK2A]	2.64 ± 0.42	2.81 ± 0.39
ESKMYATSPYSDPVVSMDLDPQPI [PTPRD]	4.18 ± 0.53	4.42 ± 0.047
SIFGICMVFSGLCPLLLGSVMAIE [PTGFR]	3.36 ± 0.43	3.09 ± 0.84
FFKGLVEAVESTLQTPLDIRLKES [TRIM14]	2.15 ± 0.33	2.29 ± 0.28
EHKSLTGTARYMSINTHLGKEQSR [CSNK1G3]	4.02 ± 0.095	3.82 ± 0.38
FLLQNDANPSIRDKEGYNSIHYAA [ANKRD44]	2.75 ± 0.25	2.85 ± 0.32
WSVTGKAEPAMPGRLYVHPDSPAT [TBX5]	3.67 ± 0.17	3.62 ± 0.22

Sequence	protein stability index (treatment: DMSO)	protein stability index (treatment: MLN4924 1 uM, 8 h)
DLIDVREVMERDAKDYADSIHAIF [RAB22A]	3.16 ± 0.042	3.23 ± 0.38
GIESMDQCRHTLEQHNWNIEAAVQ [FAF2]	3.78 ± 0.2	4.08 ± 0.19
VSLTSPSAPPTSRTSSGNVWVTHE [PPFIA4]	3.35 ± 0.21	3.47 ± 0.32
TRNGEVVTESQKEQRSELDKSSAH [PRPH]	5.06 ± 0.27	5.31 ± 0.4
RPELGAALGIYGAPYAAAAAAQSY [IRX6]	2.73 ± 0.12	2.92 ± 0.46
PGAPPGRDLASVPPELTASRQSFR [DVL3]	4.7 ± 0.23	4.84 ± 0.12
FEEPEDPSNRSFFSEIISSISDVK [PPP2R2B]	4.09 ± 0.18	4.32 ± 0.15
QELIQEAKPRATWTLKLDGNLQLD [RTP4]	3.886 ± 0.038	3.82 ± 0.32
PGSNLNLLTNNSGTPKDHDSPENG [ETS2]	5.33 ± 0.22	5.31 ± 0.26
YNNQSLGHGSHSFIYYENMLLGVP [PKD2L1]	2.16 ± 0.21	2.23 ± 0.37
LQAQKEELQSLMHQPKGLEEENAQ [PBXIP1]	5.64 ± 0.29	5.45 ± 0.27
SESMENINSGYETRRKKGKKDKDI [KMT2E]	5.01 ± 0.33	5.39 ± 0.42
DLPINVFKLLAGRWPFDHNDFGVF [EDNRA]	2.19 ± 0.7	2.19 ± 0.45
LTSRIKGDWIGLYRHFLKSPNFDG [DENND6A]	2.01 ± 0.31	2.37 ± 0.35
EQYERNKSSSSSSSSSSSSSSSSS [TMEM40]	5.46 ± 0.32	5.49 ± 0.27
LVNPLDPRNADKIRVKIADLGNAC [SRPK2]	2.92 ± 0.18	2.97 ± 0.22
HRSYLGPGSTSPLETSGNPNGRYG [SLC6A17]	4.27 ± 0.062	4.26 ± 0.29
CPRIAPADSGRYRASPTRTAPLPM [ELOA2]	3.63 ± 0.17	3.76 ± 0.41
TEIANCSLKVKFFDLERENACATK [PLD5]	–	3.92 ± 0.4
PTLSCEKYLTYDQLRKQKKKTGKS [ELOA2]	3.98 ± 0.19	4.57 ± 0.24
EVSNPSKPGRKTNQLQYMQNVVVK [BRD3]	3.66 ± 0.11	3.79 ± 0.28
DGVEVDDSYCDALTRPEPVHEFCA [ADAMTSL2]	4.57 ± 0.23	4.86 ± 0.24
QPGTNCALAIKVNLCGHWYYSKAC [ADAMTSL2]	2.7 ± 0.72	2.75 ± 0.45

Sequence	protein stability index (treatment: DMSO)	protein stability index (treatment: MLN4924 1 uM, 8 h)
RPTYTPPSIMPQKHWVYVKRGGNC [ZBTB22]	2.78 ± 0.25	3.06 ± 0.32
FPPEGNMEDKEMTGPQLPESLEDV [ZNF263]	5.58 ± 0.21	5.48 ± 0.22
YFYMSCLVKHKRIHSREKRGDSVK [ZNF649]	1.73 ± 0.16	2.38 ± 0.55
QRVKLKLWDTSGQGRFCTIFRSYS [RAB40A]	2.3 ± 0.29	2.14 ± 0.33
LDAEDRPAWNSKLQYILAQIGFSV [SLC6A17]	2.19 ± 0.53	2.32 ± 0.21
SYLDKVRALEEANTELEVKIRDWY [KRT17]	2.97 ± 0.23	3.07 ± 0.32
DKNTLKDHMRKKQHRKINPKNREY [ZNF277]	3.3 ± 0.33	3.28 ± 0.35
YETKKHLVQLPNINRVSTCYSEEI [PPEF2]	3.33 ± 0.32	3.23 ± 0.53
RTTPSRREITGVQAQPGEATSGPP [PALM]	5.25 ± 0.35	5.2 ± 0.093
VFRVSSDKLALCHLELTRKLQDLI [FCHO1]	2.28 ± 0.46	2.03 ± 0.61
VLQALFYLLDRAVDSFETQRNGLV [PTPN9]	2.45 ± 0.98	2.66 ± 0.62
IINAKSNDGWTPLHVAAHYGRDSF [ASB7]	2.46 ± 0.24	2.41 ± 0.42
GNGRPGRPSQYRPDGLRSGDGVPP [LCOR]	4.59 ± 0.31	4.79 ± 0.2
PGPREALSQLRVLCCEWLRPEKHT [ZNF232]	2.36 ± 0.21	2.15 ± 0.4
LKNTPRFKRRRVRRRRMETIVFLD [PCMTD2]	2.9 ± 0.19	3.33 ± 0.3
ELLKEAELIRNIQELLKRTIMQAV [TEKT4]	2.4 ± 0.2	2.27 ± 0.31
DMLIREVVEKRLCMYEHGEDTHQS [RSPH3]	3.7 ± 0.26	3.85 ± 0.28
SQQQPLRNQVVSSTNGELNVDDPT [CSNK1G1]	5.36 ± 0.24	5.27 ± 0.2
SDAANRNHEALRQAKQEMNESRRQ [PRPH]	5.2 ± 0.26	4.96 ± 0.34
LSRKVAKLVHFLLLKYRAREPVTK [MAGEA6]	2.7 ± 0.37	2.43 ± 0.67
